Consider two molecules from patent US20260266848A1, “COMPOSITIONS AND METHODS FOR DIAGNOSING AND TREATING DYSTONIA” (Duke University, priority 2023, published 2026).

The data set has as its system DYT1 patient plasma derived EVs. Description: Plasma-derived EV proteomics (ExoQuick ULTRA, DIA LC/MS/MS), DYT1 vs Healthy Controls. More on the design: species or system human. As to conditions: Hs. Plasma EVs (DYT1/WT); significance of genotype difference. The essentials: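 Plasma EVs enriched with ExoQuick ULTRA; 500 ng per sample run on EvoSep One UPLC (SPD30 gradient, ~5–30% acetonitrile/0.1% formic acid, 50 C) coupled to Orbitrap Astral. DIA mode: full MS r=240,000, m/z 380-980; 4 m/z fixed windows, HCD 27%.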

B1: SEC31A (protein, UniProt O94979 1-1220, looked up)
Protein transport protein …: MKLKEVDRTAMQAWSPAQNHPIYLATGTSAQQLDATFSTNASLEIFELDLSDPSLDMKSCATFSSSHRYHKLIWGPYKMDSKGDVSGVLIAGGENGNIILYDPSKIIAGDKEVVIAQNDKHTGPVRALDVNIFQTNLVASGANESEIYIWDLNNFATPMTPGAKTQPPEDISCIAWNRQVQHILASASPSGRATVWDLRKNEPIIKVSDHSNRMHCSGLAWHPDVATQMVLASEDDRLPVIQMWDLRFASSPLRVLENHARGILAIAWSMADPELLLSCGKDAKILCSNPNTGEVLYELPTNTQWCFDIQWCPRNPAVLSAASFDGRISVYSIMGGSTDGLRQKQVDKLSSSFGNLDPFGTGQPLPPLQIPQQTAQHSIVLPLKKPPKWIRRPVGASFSFGGKLVTFENVRMPSHQGAEQQQQQHHVFISQVVTEKEFLSRSDQLQQAVQSQGFINYCQKKIDASQTEFEKNVWSFLKVNFEDDSRGKYLELLGYRKEDLGKKIALALNKVDGANVALKDSDQVAQSDGEESPAAEEQLLGEHIKEEKEESEFLPSSGGTFNISVSGDIDGLITQALLTGNFESAVDLCLHDNRMADAIILAIAGGQELLARTQKKYFAKSQSKITRLITAVVMKNWKEIVESCDLKNWREALAAVLTYAKPDEFSALCDLLGTRLENEGDSLLQTQACLCYICAGNVEKLVACWTKAQDGSHPLSLQDLIEKVVILRKAVQLTQAMDTSTVGVLLAAKMSQYANLLAAQGSIAAALAFLPDNTNQPNIMQLRDRLCRAQGEPVAGHESPKIPYEKQQLPKGRPGPVAGHHQMPRVQTQQYYPHGENPPPPGFIMHGNVNPNAAGQLPTSPGHMHTQVPPYPQPQPYQPAQPYPFGTGGSAMYRPQQPVAPPTSNAYPNTPYISSASSYTGQSQLYAAQHQASSPTSSPATSFPPPPSSGASFQHGGPGAPPSSSAYALPPGTTGTLPAASELPASQRTGPQNGWNDPPALNRVPKKKKMPENFMPPVPITSPIMNPLGDPQSQMLQQQPSAPVPLSSQSSFPQPHLPGGQPFHGVQQPLGQTGMPPSFSKPNIEGAPGAPIGNTFQHVQSLPTKKITKKPIPDEHLILKTTFEDLIQRCLSSATDPQTKRKLDDASKRLEFLYDKLREQTLSPTITSGLHNIARSIETRNYSEGLTMHTHIVSTSNFSETSAFMPVLKVVLTQANKLGV
On to B1, for which the “-LogP” value is 1.85.

B2: ANO6 (protein, UniProt Q4KMQ2 1-910, looked up)
Anoctamin-6: MKKMSRNVLLQMEEEEDDDDGDIVLENLGQTIVPDLGSLESQHDFRTPEFEEFNGKPDSLFFNDGQRRIDFVLVYEDESRKETNKKGTNEKQRRKRQAYESNLICHGLQLEATRSVLDDKLVFVKVHAPWEVLCTYAEIMHIKLPLKPNDLKNRSSAFGTLNWFTKVLSVDESIIKPEQEFFTAPFEKNRMNDFYIVDRDAFFNPATRSRIVYFILSRVKYQVINNVSKFGINRLVNSGIYKAAFPLHDCKFRRQSEDPSCPNERYLLYREWAHPRSIYKKQPLDLIRKYYGEKIGIYFAWLGYYTQMLLLAAVVGVACFLYGYLNQDNCTWSKEVCHPDIGGKIIMCPQCDRLCPFWKLNITCESSKKLCIFDSFGTLVFAVFMGVWVTLFLEFWKRRQAELEYEWDTVELQQEEQARPEYEARCTHVVINEITQEEERIPFTAWGKCIRITLCASAVFFWILLIIASVIGIIVYRLSVFIVFSAKLPKNINGTDPIQKYLTPQTATSITASIISFIIIMILNTIYEKVAIMITNFELPRTQTDYENSLTMKMFLFQFVNYYSSCFYIAFFKGKFVGYPGDPVYWLGKYRNEECDPGGCLLELTTQLTIIMGGKAIWNNIQEVLLPWIMNLIGRFHRVSGSEKITPRWEQDYHLQPMGKLGLFYEYLEMIIQFGFVTLFVASFPLAPLLALVNNILEIRVDAWKLTTQFRRLVPEKAQDIGAWQPIMQGIAILAVVTNAMIIAFTSDMIPRLVYYWSFSVPPYGDHTSYTMEGYINNTLSIFKVADFKNKSKGNPYSDLGNHTTCRYRDFRYPPGHPQEYKHNIYYWHVIAAKLAFIIVMEHVIYSVKFFISYAIPDVSKRTKSKIQREKYLTQKLLHENHLKDMTKNMGVIAERMIEAVDNNLRPKSE
On to B2, for which the “-LogP” value is 1.411.
